Columns and labels:
[1] = target: T1, CK2α kinase (Homo sapiens, UniProt P68400); assay: Sedimentation velocity AUC, CK2α / RAD-CK2β; assay type: binding; conditions: 20°C, 20 mM HEPES pH 7.5, 500 mM NaCl
T1 construct: made in house; host or cells: E. coli BL21(DE3) with pUBS520; pBAT4 plasmid
T1 sequence (P68400 2-329): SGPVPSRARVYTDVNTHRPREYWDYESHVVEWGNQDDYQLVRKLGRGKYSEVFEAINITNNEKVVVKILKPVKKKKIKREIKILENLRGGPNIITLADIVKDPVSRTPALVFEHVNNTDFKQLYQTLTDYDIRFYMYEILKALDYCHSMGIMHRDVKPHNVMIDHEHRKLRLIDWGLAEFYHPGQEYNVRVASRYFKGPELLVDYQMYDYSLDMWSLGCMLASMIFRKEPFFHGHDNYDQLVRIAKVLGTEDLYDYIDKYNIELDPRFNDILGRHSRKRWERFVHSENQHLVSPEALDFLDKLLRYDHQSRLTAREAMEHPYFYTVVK

[2] = target: T1, CK2α kinase; assay: Analytical SEC, CK2α / RAD-CK2β; assay type: binding; conditions: Superdex 75 5/150, 20 mM HEPES pH 7.5, 500 mM NaCl, calibrated
Protocol: Purified protein samples, either as individual proteins or equimolar mixtures, were separated by analytical SEC over an Superdex 75 5/150 size exclusion column (GE Healthcare) equilibrated with 20 mM HEPES pH 7.5, 500 mM NaCl. Fractions from the peaks from each run were analyzed by SDS-PAGE with purified proteins as standards. The column was calibrated using molecular weight standards (blue dextran, bovine serum albumin, carbonic anhydrase, cytochrome C and aprotonin, Sigma-Aldrich cat. MWGF70) and the calibration curve used to estimate the molecular weights of the three samples (Fig. S5).
Figure S5. MW estimation of CK2α, RAD-CK2β(186-200) and their complexes by SEC Calibration Superdex 75 5/150 HR column
Figure S5. Molecular weight protein standards (Sigma -Aldrich, cat. no. MWGF70, gray diamonds in the plot) were used to calibrate Superdex 75 5/150 column. Blue dextran was used to define the void volume (1.24 ml)and total volume was assumed to be […]. Elution positions of CK2α,(blue […]
main article, were used to estimate the molecular weights of the proteins from the calibration curve. […]

B1: CK2α kinase: Human CK2α kinase (residues 2-329) (protein)
chain: T1 sequence (P68400 2-329)
In the case of B1, the “Sedimentation coefficient (s-value)” value ([1]; SV AUC, 50 000 rpm, 280 nm, CK2α 6 μM, RAD-CK2β 14.3 μM, complex 5 μM each) is reported as 3.0 S, the “Molar mass from SV AUC” value ([1]; boundary spreading) is reported as 41.5 kDa and the “Molecular weight equivalent of SEC elution volume” value [2] is reported as 45.7 kDa.
